{
  "source": "paper PMC7247818",
  "about": "(2020)",
  "binders": {"B1": {"name": "PI3K p85alpha N-SH2 N-SH2 (protein)", "chain": "not shown"}},
  "biological_target": "T1, Gab2 448-460 (Homo sapiens)",
  "T1 chain": "Dansyl-TNSEDN[pY]VPMNPG",
  "assay": "stopped-flow FRET",
  "note": "Where no end group is shown, it is not given here. [ ]: non-standard residue; d: D form. The star is where a group is joined. pY = N[C@@H](Cc1ccc(OP(=O)(O)O)cc1)C(=O)O; Dansyl = CN(C)c1cccc2c(S(=O)(=O)*)cccc12",
  "data": [
    {"binder": "B1", "values": [
      {"measurement": "Kd", "result": 200, "unit": "nM"}
    ]}
  ]
}
